{"source": "paper PMC6570480", "about": "“PLK4 promotes centriole duplication by phosphorylating STIL to link the procentriole cartwheel to the microtubule wall” (eLife, 2019)", "binders": {"B1": {"name": "Flag-DmSas4 (natural protein, D. melanogaster, UniProt Q9VI72 1-901, looked up)", "chain": "MQEAGESPVGMPLSQEAIAQRLAALSRWQDEQKRLLQERQSNHRVLLGLEQRNMYKMLGLLHQETESHENSVLEEWDEEHSIQMPRLAADPDEHEPEISMADPQPAKPKRPFLRRGEGLKQRFKINPDQLRLENLPRYKFANAHPQFRTPQMKKGILKKQVKSPPNPAPPPAPKPSAQLDDLNEQRFQQMLIGKNACSSTPDLKSSYASSTTASSTSPRVRFVEQKSRAGQTTHADDEASSEASPMTGVCWAKVLDTQSIKPAQIQRRSAQIRVEDDSNVSIFELLEQKATEGNIDMNSSCIRTFMARKDQRRRVADDSDHIVVTQQVRQMRLQPQVDQMLVQELQEGDEEDTEPSSDQTLTMTPIQVGNTKVRVRFSDSNDTHEYSDATSLNDGSNIQLFEQFKSALFQALEQKKKSSPSKESDEPITKDLQEKANLVRTRLEELETEIATFKEQNAQLLRLRQQHELEKAKCTQDHMEAMERVHDEKIQAEIYLHDERMKIEEERRKFEQQMRLQKSNANSKEKKEIAALKQEVEGLQLQLKQKEQAHVSAQARLRAQLRASEKEQRNYRDEIELLRKENKRLEQELVKIGRENNSKMLQEINRNIARLAPKVLPSATMSDILDENGRRTQSLDGTAGKPAKQREAQNRRQSSGSAQVRSRSRSLSRNKKTPYALDESYASSSSVESEEVQPPVTAPKAATPPPAANSSSDFKREITNADGSKDIWYPNGNLKKISADGMNLRMLYFNKDIKETNIREGTVKYYYAETNTWHTSYLDGLEILEFPNGQTEHRRKDGTVEIHFPNNSIKIVDPSDTEKLEEWRYADGTHLVQLRNGDKILNLPNGQKEIHTKLNKRREYPDGTVKLVYPDGSQETRYSNGRVRLKDKDGKLIMDTDYAKY", "notes": "Sas-4 (DmSas4), D. melanogaster; also called CPAP orthologue DmSas4; source: Drosophila S2 cells, transfected, in lysate; not shown: FLAG, N-terminal, kept"}, "B2": {"name": "FLAG-CPAP (natural protein, human, UniProt Q9HC77 1-1338, looked up)", "chain": "MFLMPTSSELNSGQNFLTQWMTNPSRAGVILNRGFPILEADKEKRAAVDISTSFPIKGTHFSDSFSFINEEDSLLEEQKLESNNPYKPQSDKSETHTAFPCIKKGPQVAACHSAPGHQEENKNDFIPDLASEFKEGAYKDPLFKKLEQLKEVQQKKQEQLKRQQLEQLQRLMEEQEKLLTMVSGQCTLPGLSLLPDDQSQKHRSPGNTTTGERATCCFPSYVYPDPTQEETYPSNILSHEQSNFCRTAHGDFVLTSKRASPNLFSEAQYQEAPVEKNNLKEENRNHPTGESILCWEKVTEQIQEANDKNLQKHDDSSEVANIEERPIKAAIGERKQTFEDYLEEQIQLEEQELKQKQLKEAEGPLPIKAKPKQPFLKRGEGLARFTNAKSKFQKGKESKLVTNQSTSEDQPLFKMDRQQLQRKTALKNKELCADNPILKKDSKARTKSGSVTLSQKPKMLKCSNRKSLSPSGLKIQTGKKCDGQFRDQIKFENKVTSNNKENVTECPKPCDTGCTGWNKTQGKDRLPLSTGPASRLAAKSPIRETMKESESSLDVSLQKKLETWEREKEKENLELDEFLFLEQAADEISFSSNSSFVLKILERDQQICKGHRMSSTPVKAVPQKTNPADPISHCNRSEDLDHTAREKESECEVAPKQLHSLSSADELREQPCKIRKAVQKSTSENQTEWNARDDEGVPNSDSSTDSEEQLDVTIKPSTEDRERGISSREDSPQVCDDKGPFKDTRTQEDKRRDVDLDLSDKDYSSDESIMESIKHKVSEPSRSSSLSLSKMDFDDERTWTDLEENLCNHDVVLGNESTYGTPQTCYPNNEIGILDKTIKRKIAPVKRGEDLSKSRRSRSPPTSELMMKFFPSLKPKPKSDSHLGNELKLNISQDQPPGDNARSQVLREKIIELETEIEKFKAENASLAKLRIERESALEKLRKEIADFEQQKAKELARIEEFKKEEMRKLQKERKVFEKYTTAARTFPDKKEREEIQTLKQQIADLREDLKRKETKWSSTHSRLRSQIQMLVRENTDLREEIKVMERFRLDAWKRAEAIESSLEVEKKDKLANTSVRFQNSQISSGTQVEKYKKNYLPMQGNPPRRSKSAPPRDLGNLDKGQAASPREPLEPLNFPDPEYKEEEEDQDIQGEISHPDGKVEKVYKNGCRVILFPNGTRKEVSADGKTITVTFFNGDVKQVMPDQRVIYYYAAAQTTHTTYPEGLEVLHFSSGQIEKHYPDGRKEITFPDQTVKNLFPDGQEESIFPDGTIVRVQRDGNKLIEFNNGQRELHTAQFKRREYPDGTVKTVYANGHQETKYRSGRIRVKDKEGNVLMDTEL", "notes": "CPAP (CENPJ), human; also called CENPJ; source: HEK293FT, transfected, in lysate; not shown: FLAG, N-terminal, kept"}}, "key": {"[1]": {"molecular_target": "T1, Myc-GFP-Ana2 (WT) co-expressed with stabilized DmPLK4^SBM-mCherry (D. melanogaster, UniProt Q9XZ31 1-420, phosphorylated in cells by co-expressed DmPLK4^SBM-mCherry; phosphoserine at 38 (a DmPLK4 site by the cited work))", "T1 construct": "Ana2, D. melanogaster; it rests on the S38A mutant; also called WT Ana2; phosphorylated Ana2; source: Drosophila S2 cells, transfected together with DmPLK4^SBM-mCherry, in lysate; not shown: Myc, N-terminal, kept; GFP, N-terminal, kept", "T1 sequence (looked up)": "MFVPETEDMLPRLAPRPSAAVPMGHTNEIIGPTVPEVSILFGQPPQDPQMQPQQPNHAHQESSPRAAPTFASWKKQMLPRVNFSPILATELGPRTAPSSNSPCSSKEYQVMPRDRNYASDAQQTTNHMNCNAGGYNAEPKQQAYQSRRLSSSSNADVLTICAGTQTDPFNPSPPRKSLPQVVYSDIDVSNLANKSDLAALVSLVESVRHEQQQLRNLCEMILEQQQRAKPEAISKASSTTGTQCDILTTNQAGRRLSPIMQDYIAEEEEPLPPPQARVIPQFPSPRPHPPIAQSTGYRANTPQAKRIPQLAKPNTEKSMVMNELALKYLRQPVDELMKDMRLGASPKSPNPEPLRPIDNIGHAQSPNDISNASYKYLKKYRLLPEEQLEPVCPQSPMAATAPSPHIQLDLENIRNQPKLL", "assay": "co-IP; Drosophila S2 cells transfected with Myc-GFP-Ana2 and Flag-DmSas4 in the presence or absence of DmPLK4^SBM-mCherry; harvested 48 hr later; co-immunoprecipitation and immunoblot", "conditions": "partners not purified"}, "[2]": {"molecular_target": "T2, Myc-GFP-STIL (wild type) phosphorylated in cells by co-expressed kinase active PLK4^Δ24-mCherry (human, UniProt Q15468 1-1287, phosphoserine at 428 and at 1116 (phosphorylated in cells by co-expressed kinase active PLK4^Δ24-mCherry; shown with pS428 and pS1116 antibodies))", "T2 construct": "STIL, human; Further PLK4 sites may be phosphorylated (84 sites were found in vitro); also called WT STIL; phosphorylated STIL; source: HEK293FT, transfected together with kinase active PLK4^Δ24-mCherry, in lysate; not shown: Myc, N-terminal, kept; GFP, N-terminal, kept", "T2 sequence (looked up)": "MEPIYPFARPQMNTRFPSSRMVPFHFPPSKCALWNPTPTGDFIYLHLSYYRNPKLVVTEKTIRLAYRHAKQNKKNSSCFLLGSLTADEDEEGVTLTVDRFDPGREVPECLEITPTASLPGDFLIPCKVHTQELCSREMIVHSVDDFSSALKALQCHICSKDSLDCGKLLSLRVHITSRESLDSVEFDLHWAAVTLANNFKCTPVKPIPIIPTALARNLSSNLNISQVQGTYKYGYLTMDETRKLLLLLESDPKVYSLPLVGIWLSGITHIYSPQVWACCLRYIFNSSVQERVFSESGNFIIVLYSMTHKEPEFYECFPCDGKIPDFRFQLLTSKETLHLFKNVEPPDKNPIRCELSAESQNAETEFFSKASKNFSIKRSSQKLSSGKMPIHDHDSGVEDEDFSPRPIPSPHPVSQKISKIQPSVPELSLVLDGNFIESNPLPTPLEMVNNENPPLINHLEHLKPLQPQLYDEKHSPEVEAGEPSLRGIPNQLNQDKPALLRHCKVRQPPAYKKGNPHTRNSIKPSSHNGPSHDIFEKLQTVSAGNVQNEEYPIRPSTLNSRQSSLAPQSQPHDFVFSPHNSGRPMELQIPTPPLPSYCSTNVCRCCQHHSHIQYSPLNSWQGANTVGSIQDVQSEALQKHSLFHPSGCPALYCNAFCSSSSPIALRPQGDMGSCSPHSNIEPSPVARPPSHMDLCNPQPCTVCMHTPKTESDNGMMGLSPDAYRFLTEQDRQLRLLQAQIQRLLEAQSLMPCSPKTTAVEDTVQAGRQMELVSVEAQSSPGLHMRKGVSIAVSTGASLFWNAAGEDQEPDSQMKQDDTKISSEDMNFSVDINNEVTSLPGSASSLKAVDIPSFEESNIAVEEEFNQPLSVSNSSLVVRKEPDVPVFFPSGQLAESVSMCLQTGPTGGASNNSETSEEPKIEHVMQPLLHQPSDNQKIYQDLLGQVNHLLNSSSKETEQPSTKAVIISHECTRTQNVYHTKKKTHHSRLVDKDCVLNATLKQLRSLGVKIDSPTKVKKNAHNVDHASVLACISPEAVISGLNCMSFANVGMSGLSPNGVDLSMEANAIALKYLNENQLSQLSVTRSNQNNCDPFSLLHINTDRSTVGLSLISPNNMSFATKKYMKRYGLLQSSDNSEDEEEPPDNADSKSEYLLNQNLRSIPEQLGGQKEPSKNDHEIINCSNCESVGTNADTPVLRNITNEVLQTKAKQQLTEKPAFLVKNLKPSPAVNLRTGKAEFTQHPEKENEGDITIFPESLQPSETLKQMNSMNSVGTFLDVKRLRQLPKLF", "assay": "co-IP; HEK293FT cells co-transfected, with kinase active or kinase dead PLK4^Δ24-mCherry where stated; lysis buffer 10 mM Tris pH 7.5, 0.1% Triton X-100, 250 mM NaCl, 1 mM EDTA, phosphatase inhibitors; Myc-GFP-STIL captured on beads coupled to GFP-binding protein; immunoblot", "conditions": "partners not purified"}}, "data": [{"binder": "B1", "values": [{"measurement": "fold increase in the amount of DmSas4 bound, with against without DmPLK4^SBM", "setting": "[1]", "result": "> 6", "unit": "fold"}]}, {"binder": "B2", "values": [{"measurement": "fold increase in the amount of CPAP bound, kinase active against kinase inactive PLK4", "setting": "[2]", "result": "> 7", "unit": "fold"}]}]}
